Experimental data taken from article PMC10816986, “The Role of Key Amino Acids of the Human Fe(II)/2OG-Dependent Dioxygenase ALKBH3 in Structural Dynamics and Repair Activity toward Methylated DNA” (International Journal of Molecular Sciences, 2024).
Changes are numbered by the printed parent chain. Names and notes keep the numbering of the source.

B1: H191A ALKBH3: ALKBH3 mutant, His191 replaced with Ala (protein, UniProt Q96Q83 1-286, looked up, variant H191A)
Alpha-ketoglutarate-dependent …: MEEKRRRARVQGAWAAPVKSQAIAQPATTAKSHLHQKPGQTWKNKEHHLSDREFVFKEPQQVVRRAPEPRVIDREGVYEISLSPTGVSRVCLYPGFVDVKEADWILEQLCQDVPWKQRTGIREDITYQQPRLTAWYGELPYTYSRITMEPNPHWHPVLRTLKNRIEENTGHTFNSLLCNLYRNEKDSVDWASDDEPSLGRCPIIASLSFGATRTFEMRKKPPPEENGDYTYVERVKIPLDHGTLLIMEGATQADWQHRVPKEYHSREPRVNLTFRTVYPDPRGAPW
B2: L177A ALKBH3: ALKBH3 mutant, Leu177 replaced with Ala (protein, UniProt Q96Q83 1-286, looked up, variant L177A)
Alpha-ketoglutarate-dependent …: B1 Alpha-ketoglutarate-dependent … with L177A, A191H
B3: Y143F ALKBH3: ALKBH3 mutant, Tyr143 replaced with Phe (protein, UniProt Q96Q83 1-286, looked up, variant Y143F)
Alpha-ketoglutarate-dependent …: B1 Alpha-ketoglutarate-dependent … with Y143F, A191H
B4: Y143A ALKBH3: ALKBH3 mutant, Tyr143 replaced with Ala (protein, UniProt Q96Q83 1-286, looked up, variant Y143A)
Alpha-ketoglutarate-dependent …: B1 Alpha-ketoglutarate-dependent … with Y143A, A191H
B5: wt ALKBH3: wild-type human Fe(II)/2OG-dependent dioxygenase ALKBH3 with N-terminal His-tag, expressed in E. coli (protein, UniProt Q96Q83 1-286, looked up)
Alpha-ketoglutarate-dependent …: B1 Alpha-ketoglutarate-dependent … with A191H
modifications: N-terminal His-tag
notes: wild-type human Fe(II)/2OG-dependent dioxygenase ALKBH3 with N-terminal His-tag, expressed in E. coli

Tested on: single-stranded DNA substrate m3C_FAM
Experiment: Enzymatic demethylation of single-stranded m3C DNA (chemical quenching, HpaII cleavage, PAGE)
Format: biochemical
Conditions: 90 min reaction, 2 µM enzyme and m3C_FAM, 40 µM Fe(II), 1 mM 2OG, 25 °C
Protocol: The enzymatic activity of wt ALKBH3 dioxygenase and the Y143F, Y143A, L177A, and H191A mutants was investigated in a reaction with a 15nt single-stranded oligonucleotide substrate containing m3C at the ninth position from the 5’-end (see Section 4).
An enzymatic hydroxylation of a single-strand m3C-containing DNA was studied using a chemical quenching technique recently described for the ALKBH2 dioxygenase in [7]. Briefly, a typical reaction mixture contained an equimolar amount (2 µM) of the protein and FAM-labeled DNA substrate (m3C_FAM) in a buffer consisting of 50 mM of HEPES-KOH (pH 7.8), 50 mM of KCl, 10 mM of MgCl2, 1 mM of 2OG, 2 mM of sodium ascorbate, and 40 µM of (NH4)2Fe(SO4)2·6H2O. An equal volume of 0.2 M NaOH was added to […] of aliquots of the mixture to terminate the reaction at certain time points. After neutralization with HCl and desalting, each of the aliquots was supplemented by the complementary DNA strand and treated with the HpaII restriction endonuclease specific to the repaired sequence (CCGG) according to the manufacturer’s protocol. The resulting reaction product was separated from the substrate using denaturating PAGE and visualized by the Amersham Typhoon Imager (Cytiva, Uppsala, Sweden) (Supplementary Figure S1). Data for the wt, Y143F, and Y143A proteins were converted to mol/L units and then fitted to a single exponent (Equation (1)), where P, P0, and Pmax are amounts of product at any given time, at the zero-time point, and the end time point, respectively; kobs is the observed rate constant. (1) P=P0+Pmax(1−exp−kobst) […]
Figure 2 The catalytic activity of wt and mutant ALKBH3 proteins on single-stranded DNA substrate m3C_FAM. Time courses of the dealkylated product accumulation were obtained at 25 °C by mixing an equimolar amount (2 μM) of enzyme and FAM-labeled DNA substrate dissolved in the reaction buffer containing 40 μM Fe(II) and 1 mM 2OG. Each reaction time point is the mean ± SD of three technical replicates.
Figure S1. PAGE analysis of ALKBH3 repair activity towards the m3C -containing substrate. ALKBH3 at 2 µM was incubated with an equimolar amount of a FA M - labelled single-stranded substrate m3C_FAM. The reaction was quenched at each time point by the addition of an equal volume of 0.2 M NaOH.
(§1) (1 picture or pasted object on this page, not shown here)

Row | Molecule | maximum DNA substrate demethylation degree (product yield)
1 | B1 | undetectable
2 | B2 | ≤ 7%
3 | B3 | 30%
4 | B4 | 10%

Same assay, conditions: single exponential fit of product accumulation

Row | Molecule | observed rate constant for demethylation, kobs [min⁻¹]
5 | B5 | 0.70 ± 0.08
6 | B3 | 0.17 ± 0.02

Target: not listed separately
Experiment: Equilibrium fluorescence titration with Fe(II)
Format: binding
Conditions: 1 µM apoprotein, 25 °C; read-out: Dissociation constant Kd, Fe(II)
Text: (§2) To investigate the impact of selected mutations on ALKBH3’s ability to bind its cofactor, co-substrate, and methylated DNA, the fluorescent titration method was employed. It is well-established that enzyme–ligand binding typically leads to a protein conformational change, which in turn can alter the fluorescence intensity of tryptophan and tyrosine residues within the protein sequence. […] In this study, transitional metals (Fe(II), Ni(II), and Co(II)), 2OG, and the m3C substrate served as titrants. Protein fluorescence quenching was measured after the addition of an excess of the ligand to 1 µM of enzyme (Supplementary Figure S2). To determine the equilibrium dissociation constant’s Kd values, the resulting titration curves were analyzed using a non-linear regression algorithm (see Section 4.3 of “Materials and Methods” for details). […] As indicated by the data presented in Table 2, the stability of the wt ALKBH3 apoenzyme’s affinity to various ligands and damaged DNA generally corresponds to the stability of such complexes for AlkB and ALKBH2 enzymes. […] The binding of Ni(II) and Co(II) ions of similar radii was weakened by approximately two-fold. […] This behavior is more characteristic of the bacterial homolog AlkB rather than human ALKBH2 [7].
(§3) The intrinsic tryptophan fluorescence quenching was monitored at the maximum of emission (345 nm, in most cases) using an excitation wavelength of 280 nm, and 5 nm slits. An amount of 2 mM of (NH4)2Fe(SO4)2·6H2O, 2 mM of NiSO4×7H2O, 2 mM of CoSO4·7H2O, 2 mM of 2OG, or 100 µM of m3C substrate was titrated into 1 µM of apoprotein (a free enzyme with no metal or 2OG added) in the presence of 50 mM of HEPES-KOH (pH 7.8), 50 mM of KCl, and 10 mM of MgCl2. When titrating with DNA, the buffer was supplemented with 2 mM of EDTA. The dissociation constant Kd for a model of one-step binding (E + L ↔ EL) was determined using Equations (2)–(5) and a non-linear regression algorithm in the OriginPro 8.1 software (OriginLab Corp., Northampton, MA, USA):(2) Kd=E[L]/[EL] (3) F=f0+f1E+f2[EL] (4) e0=E+[EL] (5) l0=L+[EL] where F is the observed fluorescence intensity at any given ligand (L) concentration; f0 is the background fluorescence; f1 and f2 are partial fluorescence intensities of the free enzyme (E) and enzyme–ligand complex (EL), respectively; e0 and l0 are total concentrations of the enzyme and ligand.
(§4) Figure S2. Equilibrium binding of the wild-type and mutant ALKBH3 proteins to transition metals, 2OG, or m3C-containing DNA. The quenching of the enzyme ﬂuorescence is shown as a function of Fe(II) (A), Ni(II) (B), Co(II) (C), 2OG ( D), and single-stranded m3C substrate (E). The protein concentration was 1 µM. In the course of titration by Fe(II), a sodium ascorbate (1mM) was added to keep the metal in a reduced state. Experimental data points were ﬁtted to a single-site binding mode l (see “Materials and Methods”). Each trace represents the average of three technical […]
as §1

Row | Kd [µM] | Molecule
7 | 25 ± 2 | B5
8 | 20 ± 2 | B1
9 | 24 ± 2 | B2
10 | 23 ± 2 | B3
11 | 25 ± 3 | B4

Target: not listed separately
Experiment: Equilibrium fluorescence titration with Ni(II)
Format: binding
Conditions: 1 µM apoprotein, 25 °C; read-out: Dissociation constant Kd, Ni(II)
Text: as §2, §3, §4, §1

Row | Kd [µM] | Molecule
12 | 42 ± 4 | B5
13 | 50 ± 4 | B1
14 | 90 ± 10 | B2
15 | 42 ± 3 | B3
16 | 60 ± 7 | B4

Target: not listed separately
Experiment: Equilibrium fluorescence titration with Co(II)
Format: binding
Conditions: 1 µM apoprotein, 25 °C; read-out: Dissociation constant Kd, Co(II)
Text: as §2, §3, §4, §1

Row | Kd [µM] | Molecule
17 | 52 ± 4 | B5
18 | 59 ± 6 | B1
19 | 98 ± 9 | B2
20 | 40 ± 3 | B3
21 | 44 ± 4 | B4

Target: not listed separately
Experiment: Equilibrium fluorescence titration with 2OG
Format: binding
Conditions: 1 µM apoprotein, 25 °C; listed as wt; read-out: Dissociation constant Kd, 2OG
Text: as §2, §3, §4, §1

Row | Kd [µM] | Molecule
22 | 52 ± 7 | B5

Same assay, conditions: 1 µM apoprotein, 25 °C; read-out: Dissociation constant Kd, 2OG

Row | Kd [µM] | Molecule
23 | ~50 | B5
24 | 34 ± 2 | B1
25 | 67 ± 8 | B2
26 | 52 ± 4 | B3
27 | 53 ± 10 | B4

Target: m3C substrate
Experiment: Equilibrium fluorescence titration with methylated DNA
Format: binding
Conditions: 1 µM apoprotein, 2 mM EDTA, 25 °C; read-out: Dissociation constant Kd, m3C substrate
Text: as §2
The affinity of the active site of ALKBH3 for methylated DNA was studied using the m3C substrate without fluorescent labels (see Section 4). […] The replacement of key amino acids leads to an approximate 1.4-fold weakening of contacts with the DNA substrate for the Y143F mutant, 2.3-fold for Y143A, 2-fold for L177A, and 1.5-fold for H191A. Therefore, the removal of the bulky side chain of Tyr143 dramatically affects the ability of ALKBH3 to bind damaged DNA, while withdrawal of its OH group only slightly weakens protein–DNA interactions.
as §3, §4, §1

Row | Kd [µM] | Molecule
28 | 2.8 ± 0.1 | B5
29 | 4.3 ± 0.3 | B1
30 | 5.7 ± 0.3 | B2
31 | 3.8 ± 0.5 | B3
32 | 6.3 ± 0.6 | B4

Same assay, conditions: ratio of Kd for m3C substrate

Row | Molecule | weakening of contacts with the DNA substrate relative to wt [fold]
33 | B1 | ~1.5
34 | B2 | ~2
35 | B3 | ~1.4
36 | B4 | ~2.3
